Laboratory results as given in publication PMC8257933.

Columns and labels:
[1] = target: NTCP-V5-His G233LXXXG237L (TMD7) mutant; assay: co-IP (IP anti-FLAG agarose, western blot anti-V5, ImageJ band quantification); conditions: HEK293 cells co-transfected with NTCP-FLAG and NTCP-V5-His; n = 3 independent experiments; parent: est. 100; read off a plot
[2] = target: NTCP-V5-His G60LXXXA64L/G233LXXXG237L (TMD2/7) double mutant; assay: as above; conditions: HEK293 cells co-transfected with NTCP-FLAG and NTCP-V5-His; n = 3 independent experiments; parent: est. 100; read off a plot

“NTCP wild type, NTCP-FLAG and NTCP-V5-His expressed in HEK293 cells (from UniProt Q14973) binder (NTCP-FLAG): G60L; A64L; target (NTCP-V5): G233L; G237L” was tested, and the percent of parent [1] was 120 % of control.

In the case of “NTCP wild type, NTCP-FLAG and NTCP-V5-His expressed in HEK293 cells (from UniProt Q14973) binder (NTCP-FLAG): G60L; A64L; G233L; G237L; target (NTCP-V5): G60L; A64L; G233L; G237L”, the percent of parent [2] is reported as 130 % of control.
